Results on 1 substance are retold here after US20200181259A1.

This experiment deals with mouse CD47-Fc (mouse) (UniProt Q61735). The experiment is described as follows: bio-light interferometry (ForteBio), antibody on AHQ tip, mouse CD47-Fc 100 nM in solution, bivalent. For orientation: Biolayer interferometry detects binding as a change in optical thickness at a sensor tip.
mouse CD47-Fc (mouse), sequence (Q61735 19-140 limits assumed): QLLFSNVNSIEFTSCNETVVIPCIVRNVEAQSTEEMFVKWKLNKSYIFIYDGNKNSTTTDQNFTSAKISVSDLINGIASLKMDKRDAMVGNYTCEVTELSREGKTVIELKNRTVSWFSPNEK

Hu5F9, control anti-CD47 antibody transiently expressed in 293 HEK cells, sequence (VH): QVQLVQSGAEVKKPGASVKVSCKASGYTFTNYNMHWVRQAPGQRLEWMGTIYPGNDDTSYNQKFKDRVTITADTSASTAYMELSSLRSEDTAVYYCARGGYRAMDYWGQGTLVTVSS
Hu5F9, control anti-CD47 antibody transiently expressed in 293 HEK cells, sequence (VL): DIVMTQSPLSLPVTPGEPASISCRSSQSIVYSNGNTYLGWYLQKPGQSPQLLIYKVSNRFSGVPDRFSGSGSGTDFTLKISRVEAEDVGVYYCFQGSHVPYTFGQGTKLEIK

Regarding “Hu5F9, control anti-CD47 antibody transiently expressed in 293 HEK cells”, the Kd amounted to 12.7 nM.
